Laboratory results taken from patent EP4707393A1, “DOUBLE-STRANDED SIRNA, CONJUGATE THEREOF AND USE THEREOF” (CMS Research & Development Pte. Ltd., priority 2023, dated 2024).
pEC50: −log10 of the molar value.

Key:
hPBMCs = assay: Immunogenicity test in hPBMCs (IL-6 and TNF-α ELISA of supernatant); type: cell-based, human; settings: donor 2 hPBMCs, 18-20 h
Method in brief: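 siRNA conjugates, three-fold serially diluted in water then 10-fold in 1640 medium (5.0% water final), were added in duplicate to PBMCs at 1.6 × 10^6/mL and incubated 18-20 h at 37 °C. TNF-α and IL-6 in supernatant were measured by ELISA; LPS served as positive control.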

LPA mRNA = assay: In vivo efficacy in LPA-HDI mouse model (liver LPA mRNA); parameters: species or system BALB/c mouse; settings: 3 mg/kg single subcutaneous injection, Day 14, relative to PBS blank group, 4 mice per group
Description: The knockdown effect of the test double-stranded siRNA conjugate on the target gene LPA upon entry into the mouse is evaluated by rapid high-pressure injection of the physiological saline containing recombinant plasmid pcDNA-LPA carrying the target gene via the tail vein.
pcDNA-LPA plasmid, BALB/c mouse, PBS (phosphate buffer), and conjugates of the present invention.
Six-week-old female BALB/c mice were ordered and acclimated/quarantined for three days upon arrival in the animal room.
On Day 0, the mice were randomly grouped based on body weight data. After grouping, all mice were given a single administration via subcutaneous injection, with a dose volume of 10 mL/kg. Mice in Group 1 received PBS; mice in the other groups received the conjugates (dissolved in PBS).
On Day 13 post-administration, all mice were injected with normal saline containing the pcDNA-LPA plasmid via the tail vein within 5 seconds. The injection volume (mL) = mouse body weight (g) × 8%. The amount of plasmid injected per mouse was 10 µg.
On Day 14 post-administration, all groups of mice were euthanized by CO2 inhalation, and 2 liver samples were collected from each mouse. Liver samples were treated overnight with RNAlater at 4 °C, then RNAlater was removed, and stored at -80 °C for detection of LPA gene expression levels.

[1] = test system: human LPA gene (Genbank number: NM_005577.4); assay: Inhibitory activity against LPA mRNA, psiCHECK-2 dual-luciferase reporter vector in Huh7 cells; type: cell-based; settings: Huh7 cells transfected with LPA_psiCHECK-2 plasmid, RNAiMAX transfection
Method in brief: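 Huh7 cells transfected with psiCHECK-2 carrying human LPA, then treated next day with compounds (3 concentrations) delivered by RNAiMAX. Dual-Glo readout of firefly and Renilla luciferase per well. Percent inhibition calculated from the reporter ratio relative to the RNAiMAX control.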

[2] = Melting temperature (Tm) by UV absorption at 260 nm; type: physicochemical; settings: phosphate buffer solution; average of at least two independent measurements
Description: The Tm value was determined by recording the change in UV absorption at 260 nm of DNA/RNA in phosphate buffer solution as the temperature increased.
Table 6 Melting temperature (Tm) test instrument parameters
The melting temperature (Tm) was calculated from the first derivative of the smoothed heating curve, and the reported value was the average of at least two independent measurements. Table 7 Melting temperatures (Tm) of conjugates of the present disclosure

Substance	IL-6 (hPBMCs; 5 µg/mL) [pg/mL]	TNF alpha (hPBMCs; 5 µg/mL) [pg/mL]	IL-6 (hPBMCs; 15 µg/mL) [pg/mL]	TNF alpha (hPBMCs; 15 µg/mL) [pg/mL]	IL-6 (hPBMCs; 45 µg/mL) [pg/mL]	TNF alpha (hPBMCs; 45 µg/mL) [pg/mL]	% Downregulation of LPA mRNA (LPA mRNA) [%]	pEC50 [1]	Melting temperature Tm [2] [°C]
Z47: siRNA conjugate: sense SEQ ID NO:51, ligand D01 at 3' end of sense strand, antisense SEQ ID NO:83 (sense CCTGCCAAGCTTGGTCATCTA; antisense NAGATGNCCAAGCTTGGCNGGTT; ligand D01 at sense 3' end; listed as RNA; modified_base 1..2: mod_base = OTHER; note = 2'-O-methylcytidine; modified_base 3: mod_base = OTHER; note = 2'-O-methyluridine; modified_base 4: mod_base = OTHER; note = 2'-O-methylguanosine; modified_base 5..6: mod_base = OTHER; note = 2'-O-m; modified_base 1: mod_base = OTHER; note = n is B33; modified_base 2: mod_base = OTHER; note = 2'-deoxyadenosine; note = 2'-O-methyladenosine)	49.9	15.6	0.0	3.4	16.7	9.5	64.0	9.70	–
Z48: siRNA conjugate: sense SEQ ID NO:51, ligand D01 at 3' end of sense strand, antisense SEQ ID NO:84 (sense CCTGCCAAGCTTGGTCATCTA; antisense NAGATGNCCAAGCTTGGCNGGTT; ligand D01 at sense 3' end; listed as RNA; modified_base 1..2: mod_base = OTHER; note = 2'-O-methylcytidine; modified_base 3: mod_base = OTHER; note = 2'-O-methyluridine; modified_base 4: mod_base = OTHER; note = 2'-O-methylguanosine; modified_base 5..6: mod_base = OTHER; note = 2'-O-m; modified_base 1: mod_base = OTHER; note = n is B34; modified_base 2: mod_base = OTHER; note = 2'-deoxyadenosine; note = 2'-O-methyladenosine)	32.0	15.3	49.5	20.4	1.1	5.9	64.0	10.05	–
Z54: siRNA conjugate: sense SEQ ID NO:49, ligand D01 at 3' end of sense strand, antisense SEQ ID NO:90 (sense CAGCCCCTTATTGTTATACGA; antisense NCGTATNACAATAAGGGGCNGTT; ligand D01 at sense 3' end; listed as RNA; modified_base 1: mod_base = OTHER; note = 2'-O-methylcytidine; modified_base 2: mod_base = OTHER; note = 2'-O-methyladenosine; modified_base 3: mod_base = OTHER; note = 2'-O-methylguanosine; modified_base 4..7: mod_base = OTHER; note = 2'-O-me; note = n is B33; note = 2'-fluorocytidine; modified_base 4: mod_base = OTHER; note = 2'-O-methyluridine;)	–	–	–	–	–	–	–	–	69.00
Z56: siRNA conjugate: sense SEQ ID NO:43, ligand D01 at 3' end of sense strand, antisense SEQ ID NO:92 (sense CAGCCCCTTATTGTTANACGA; antisense TCTCGTATAACAATAAGGGGCTG; ligand D01 at sense 3' end; listed as RNA; modified_base 1: mod_base = OTHER; note = 2'-O-methylcytidine; modified_base 2: mod_base = OTHER; note = 2'-O-methyladenosine; modified_base 3: mod_base = OTHER; note = 2'-O-methylguanosine; modified_base 4..7: mod_base = OTHER; note = 2'-O-me; note = 2'-O-methyluridine; modified_base 4: mod_base = OTHER; note = 2'-fluorocytidine; modified_base 5: mod_base = OTHER; note = 2'-O-methylg)	–	–	–	–	–	–	–	–	77.25
